Experiments:
[1] = tested on: bevacizumab (Avastin) (humanized IgG (organism not stated)); test: bead pull-down, HT-RPLC of residual solution; details: 50 ug/mL bevacizumab, Plasma samples diluted 10x in 175 mM trehalose, 42 mM NaH2PO4, 8 mM Na2HPO4, 0.4% Tween-20, pH 7.4, 0.1% peptone, room temperature, 1 h, bead comparison: beads …; for fraction of antibody not captured (% not captured): immobilization effect, 5'-aminohexyl
[2] = tested on: bevacizumab (Avastin) (humanized IgG (organism not stated)); test: bead pull-down, HT-RPLC of eluate; details: 10 ug/mL in human plasma, 5'-biotin, Plasma samples diluted 10x in 175 mM trehalose, 42 mM NaH2PO4, 8 mM Na2HPO4, 0.4% Tween-20, pH 7.4, 0.1% peptone, room temperature, 1 h, bead comparison: beads …

| Sequence | fraction of antibody not captured (% not captured) ([1]; carboxylic acid beads) | fraction of antibody not captured (% not captured) ([1]; tosylactivated beads) | binding signal ([2]; first use of beads) [% recovery] | binding signal ([2]; third use of beads) [% recovery] | binding signal ([1]; streptavidin beads, 5'-biotin) [% captured] |
| --- | --- | --- | --- | --- | --- |
| GCGGTTGGTGGTAGTTACGTTCGC [anti-bevacizumab DNA aptamer, 5'-aminohexyl] | 85.5 | 75.8 |  |  |  |
| GCGGTTGGTGGTAGTTACGTTCGC [anti-bevacizumab DNA aptamer, 5'-biotin] |  |  | 101 | 97.3 | > 99.8 |

— paper PMC6429324
